# ± gives the standard error. Variants at the floor of the assay were thinned out.
# B1: glmS ribozyme (parent)
# chain: AUAAAAGCGCCAGAACUACAGAAAUGUAGUUGACGAGGAGGAGGUUUAUCGAAUUUUCGGCGGAUGCCUCCAAA
# How the values were obtained:
# Conditions in all cases: with glucosamine-6-phosphate
# [1] = variants of: B1; assay: self-cleavage kobs at 640 uM GlcN6P; higher = faster cleavage; RNA array
# How it was run: (§1)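 Ribozyme variants carrying barcodes were transcribed in situ on sequenced MiSeq chips by E. coli RNA polymerase and tracked at 37 °C with a hybridised Cy3 probe. They were exposed to 40 μM to 10 mM glucosamine-6-phosphate in HEPES/KCl/Mg(OAc)2 buffer. kobs came from exponential decay fits of normalised per-tile medians, and kcat and KM from weighted Michaelis–Menten fits.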
# [2] = variants of: B1; assay: self-cleavage kobs at 2500 uM GlcN6P; higher = faster cleavage; RNA array
# How it was run: as §1
# [3] = variants of: B1; assay: self-cleavage kobs at 10000 uM GlcN6P; higher = faster cleavage; RNA array
# How it was run: as §1
variant,measurement,setting,value
U30A G40U G63A A64G,self-cleavage kobs at 640 uM GlcN6P,[1],< 1e-05 s⁻¹
G32A U65A C71U,self-cleavage kobs at 640 uM GlcN6P,[1],5.38e-05 ± 1.4e-05 s⁻¹
same,self-cleavage kobs at 2500 uM GlcN6P,[2],9.54e-05 ± 2.4e-05 s⁻¹
A15G U49G U65G C70A,self-cleavage kobs at 640 uM GlcN6P,[1],0.00349 ± 0.0014 s⁻¹
A14G U54A C58A C68U,self-cleavage kobs at 640 uM GlcN6P,[1],9.22e-05 ± 1.9e-05 s⁻¹
same,self-cleavage kobs at 2500 uM GlcN6P,[2],0.000131 ± 2.9e-05 s⁻¹
U30A G51U A53C G59A G60C C70G,self-cleavage kobs at 640 uM GlcN6P,[1],< 1e-05 s⁻¹
A14G A33G G41U A48C U69G,self-cleavage kobs at 640 uM GlcN6P,[1],< 1e-05 s⁻¹
same,self-cleavage kobs at 2500 uM GlcN6P,[2],< 1e-05 s⁻¹
A14U A48U G51A A52G,self-cleavage kobs at 640 uM GlcN6P,[1],< 1e-05 s⁻¹
same,self-cleavage kobs at 2500 uM GlcN6P,[2],< 1e-05 s⁻¹
C16U U55A C68U,self-cleavage kobs at 640 uM GlcN6P,[1],0.000364 ± 0.00011 s⁻¹
same,self-cleavage kobs at 2500 uM GlcN6P,[2],0.00062 ± 0.00021 s⁻¹
C16U U55A C68G,self-cleavage kobs at 640 uM GlcN6P,[1],8.37e-05 ± 1.4e-05 s⁻¹
same,self-cleavage kobs at 2500 uM GlcN6P,[2],3.34e-05 ± 1e-05 s⁻¹
same,self-cleavage kobs at 10000 uM GlcN6P,[3],7.42e-05 ± 1.8e-05 s⁻¹
U30G G32A C68U,self-cleavage kobs at 640 uM GlcN6P,[1],7.55e-05 ± 3.7e-05 s⁻¹
A15C C16U U45A,self-cleavage kobs at 640 uM GlcN6P,[1],0.000911 ± 0.00018 s⁻¹
same,self-cleavage kobs at 2500 uM GlcN6P,[2],0.00147 ± 0.00058 s⁻¹
A15U G41C G44U A48U U49A G51U C67U,self-cleavage kobs at 640 uM GlcN6P,[1],< 1e-05 s⁻¹
C16G G29A G40A A42C,self-cleavage kobs at 640 uM GlcN6P,[1],< 1e-05 s⁻¹
same,self-cleavage kobs at 2500 uM GlcN6P,[2],< 1e-05 s⁻¹
A14U C16A G35C G43C A53C C61U,self-cleavage kobs at 640 uM GlcN6P,[1],< 1e-05 s⁻¹
same,self-cleavage kobs at 2500 uM GlcN6P,[2],< 1e-05 s⁻¹
U31A U46G A48G,self-cleavage kobs at 640 uM GlcN6P,[1],< 1e-05 s⁻¹
A15G G38U,self-cleavage kobs at 640 uM GlcN6P,[1],< 1e-05 s⁻¹
A15C C16U U56C,self-cleavage kobs at 640 uM GlcN6P,[1],7.03e-05 ± 1.8e-05 s⁻¹
same,self-cleavage kobs at 2500 uM GlcN6P,[2],0.000249 ± 7.3e-05 s⁻¹
A15U U45A G66U,self-cleavage kobs at 640 uM GlcN6P,[1],4.46e-05 ± 1.6e-05 s⁻¹
U30G G37A,self-cleavage kobs at 640 uM GlcN6P,[1],9.32e-05 ± 2.2e-05 s⁻¹
same,self-cleavage kobs at 2500 uM GlcN6P,[2],0.000172 ± 4.2e-05 s⁻¹
same,self-cleavage kobs at 10000 uM GlcN6P,[3],0.000734 ± 0.00011 s⁻¹
C16A C70U C71A,self-cleavage kobs at 640 uM GlcN6P,[1],0.00012 ± 4.3e-05 s⁻¹
U30A A42C C71U,self-cleavage kobs at 640 uM GlcN6P,[1],< 1e-05 s⁻¹
A15G A36U U45G U46G A64G,self-cleavage kobs at 640 uM GlcN6P,[1],< 1e-05 s⁻¹
G32A C58G C68U,self-cleavage kobs at 640 uM GlcN6P,[1],5.31e-05 ± 2.4e-05 s⁻¹
same,self-cleavage kobs at 2500 uM GlcN6P,[2],8.37e-05 ± 2.3e-05 s⁻¹
G29U G37A C50G C68G,self-cleavage kobs at 640 uM GlcN6P,[1],0.000384 ± 0.00016 s⁻¹
same,self-cleavage kobs at 2500 uM GlcN6P,[2],5.37e-05 ± 1.7e-05 s⁻¹
G29C C70G,self-cleavage kobs at 640 uM GlcN6P,[1],8e-05 ± 1.4e-05 s⁻¹
same,self-cleavage kobs at 2500 uM GlcN6P,[2],2.33e-05 ± 8.6e-06 s⁻¹
same,self-cleavage kobs at 10000 uM GlcN6P,[3],4e-05 ± 1.4e-05 s⁻¹
A15G A48U C70G,self-cleavage kobs at 640 uM GlcN6P,[1],5.16e-05 ± 1.9e-05 s⁻¹
same,self-cleavage kobs at 2500 uM GlcN6P,[2],6.9e-05 ± 1.6e-05 s⁻¹
U30C G32U C34G G51U,self-cleavage kobs at 640 uM GlcN6P,[1],< 1e-05 s⁻¹
same,self-cleavage kobs at 2500 uM GlcN6P,[2],< 1e-05 s⁻¹
C16U G59C G62U,self-cleavage kobs at 640 uM GlcN6P,[1],< 1e-05 s⁻¹
U31C G37A,self-cleavage kobs at 640 uM GlcN6P,[1],0.000113 ± 2.3e-05 s⁻¹
same,self-cleavage kobs at 2500 uM GlcN6P,[2],0.000119 ± 1.8e-05 s⁻¹
same,self-cleavage kobs at 10000 uM GlcN6P,[3],0.000359 ± 3.4e-05 s⁻¹
U30A A48C C58U G59C,self-cleavage kobs at 640 uM GlcN6P,[1],< 1e-05 s⁻¹
U31G G37C G38C,self-cleavage kobs at 640 uM GlcN6P,[1],< 1e-05 s⁻¹
same,self-cleavage kobs at 2500 uM GlcN6P,[2],< 1e-05 s⁻¹
A15G G38U G59C,self-cleavage kobs at 640 uM GlcN6P,[1],< 1e-05 s⁻¹
G29A C50G C71A,self-cleavage kobs at 640 uM GlcN6P,[1],0.000129 ± 3.4e-05 s⁻¹
same,self-cleavage kobs at 2500 uM GlcN6P,[2],0.000111 ± 2.3e-05 s⁻¹
A14U U30G G40A,self-cleavage kobs at 640 uM GlcN6P,[1],0.000126 ± 3.6e-05 s⁻¹
same,self-cleavage kobs at 2500 uM GlcN6P,[2],0.000424 ± 0.00014 s⁻¹
A14U G26A C68G,self-cleavage kobs at 640 uM GlcN6P,[1],5e-05 ± 2e-05 s⁻¹
same,self-cleavage kobs at 2500 uM GlcN6P,[2],4.16e-05 ± 1.8e-05 s⁻¹
A15U C50G G66C C71G,self-cleavage kobs at 640 uM GlcN6P,[1],7.22e-05 ± 2.8e-05 s⁻¹
same,self-cleavage kobs at 2500 uM GlcN6P,[2],9.27e-05 ± 3e-05 s⁻¹
C16G G63U,self-cleavage kobs at 640 uM GlcN6P,[1],< 1e-05 s⁻¹
same,self-cleavage kobs at 2500 uM GlcN6P,[2],< 1e-05 s⁻¹
same,self-cleavage kobs at 10000 uM GlcN6P,[3],< 1e-05 s⁻¹
A14G G38C G44A,self-cleavage kobs at 640 uM GlcN6P,[1],< 1e-05 s⁻¹
same,self-cleavage kobs at 2500 uM GlcN6P,[2],< 1e-05 s⁻¹
same,self-cleavage kobs at 10000 uM GlcN6P,[3],< 1e-05 s⁻¹
A14G C16A G40A,self-cleavage kobs at 640 uM GlcN6P,[1],0.000169 ± 3e-05 s⁻¹
same,self-cleavage kobs at 2500 uM GlcN6P,[2],0.00023 ± 6.8e-05 s⁻¹
A15U A42C C67U C70G,self-cleavage kobs at 640 uM GlcN6P,[1],< 1e-05 s⁻¹
same,self-cleavage kobs at 2500 uM GlcN6P,[2],< 1e-05 s⁻¹
A15C C16G G43U U56C A64U C68A,self-cleavage kobs at 640 uM GlcN6P,[1],< 1e-05 s⁻¹
A15G U45A A53G,self-cleavage kobs at 640 uM GlcN6P,[1],0.0131 ± 0.0027 s⁻¹
A15G G29U U55G A64G,self-cleavage kobs at 640 uM GlcN6P,[1],0.000144 ± 2.7e-05 s⁻¹
G32U A42C C58U,self-cleavage kobs at 640 uM GlcN6P,[1],< 1e-05 s⁻¹
same,self-cleavage kobs at 2500 uM GlcN6P,[2],< 1e-05 s⁻¹
U30G A39U U65C,self-cleavage kobs at 640 uM GlcN6P,[1],0.000103 ± 3.8e-05 s⁻¹
same,self-cleavage kobs at 10000 uM GlcN6P,[3],0.000419 ± 6.3e-05 s⁻¹
C16U A33U U49A,self-cleavage kobs at 640 uM GlcN6P,[1],< 1e-05 s⁻¹
same,self-cleavage kobs at 2500 uM GlcN6P,[2],< 1e-05 s⁻¹
C16G C34G A42C G43A,self-cleavage kobs at 640 uM GlcN6P,[1],< 1e-05 s⁻¹
U31C A33U A36U G38C C58U U65G G66C C71U,self-cleavage kobs at 640 uM GlcN6P,[1],< 1e-05 s⁻¹
same,self-cleavage kobs at 2500 uM GlcN6P,[2],< 1e-05 s⁻¹
G32U A36U G62U,self-cleavage kobs at 640 uM GlcN6P,[1],< 1e-05 s⁻¹
U31G G41U U47G,self-cleavage kobs at 640 uM GlcN6P,[1],7.13e-05 ± 2e-05 s⁻¹
same,self-cleavage kobs at 2500 uM GlcN6P,[2],0.000232 ± 5.7e-05 s⁻¹
G32C G35U U46A C68G,self-cleavage kobs at 640 uM GlcN6P,[1],< 1e-05 s⁻¹
C16G A48U C50G C70A,self-cleavage kobs at 640 uM GlcN6P,[1],5.34e-05 ± 2.6e-05 s⁻¹
A15C G37C,self-cleavage kobs at 640 uM GlcN6P,[1],< 1e-05 s⁻¹
G29U C34U C50G C70U,self-cleavage kobs at 640 uM GlcN6P,[1],0.000136 ± 2.9e-05 s⁻¹
same,self-cleavage kobs at 2500 uM GlcN6P,[2],8.93e-05 ± 2.5e-05 s⁻¹
A15U A33G G44U A48U,self-cleavage kobs at 640 uM GlcN6P,[1],< 1e-05 s⁻¹
same,self-cleavage kobs at 2500 uM GlcN6P,[2],< 1e-05 s⁻¹
same,self-cleavage kobs at 10000 uM GlcN6P,[3],< 1e-05 s⁻¹
G32A G51U A52U G60C G62C,self-cleavage kobs at 640 uM GlcN6P,[1],< 1e-05 s⁻¹
A14U G29A U47G C50U A53C C70G,self-cleavage kobs at 640 uM GlcN6P,[1],0.00022 ± 4.5e-05 s⁻¹
same,self-cleavage kobs at 2500 uM GlcN6P,[2],0.000165 ± 3.4e-05 s⁻¹
A14G A42C G63U,self-cleavage kobs at 640 uM GlcN6P,[1],< 1e-05 s⁻¹
U30A G37A U56A,self-cleavage kobs at 640 uM GlcN6P,[1],5.62e-05 ± 1.7e-05 s⁻¹
A15G C34A A64C,self-cleavage kobs at 640 uM GlcN6P,[1],< 1e-05 s⁻¹
G29U A36C G44U,self-cleavage kobs at 640 uM GlcN6P,[1],< 1e-05 s⁻¹
same,self-cleavage kobs at 10000 uM GlcN6P,[3],< 1e-05 s⁻¹
A15U U45C C50G U69G,self-cleavage kobs at 640 uM GlcN6P,[1],< 1e-05 s⁻¹
same,self-cleavage kobs at 2500 uM GlcN6P,[2],< 1e-05 s⁻¹
